Assay results reported in the supplement of paper PMC10567573.

B1: ZNF449 (parent)
chain: YRHQRLHTGERPYECTVCKKRFTR
B2: C8orf76 (parent)
chain: LYLQLAICSSLQNLEKTIFCLQKL

Variants of: B1
Assay: protein stability index of a GFP-peptide fusion (GPS, HEK-293T) (PSI 1-6); higher = more stable
Conditions: c terminus: a fixed tail appended
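Note: lentivirally expressed fusions sorted by FACS into six bins by GFP to DsRed ratio, PSI derived from sequencing read proportions per bin multiplied by bin number.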

Variant	protein stability index
YRHQRTHTGERPYECTVCKKRFTR [L6T]	2.51
YRHQRPHTGERPYECTVCKKRFTR [L6P]	2.4
YQHQRLHTGERPYECTVCKKRFTR [R2Q]	2.12
YAHQRLHTGERPYECTVCKKRFTR [R2A]	1.81
YRHQRLHTGERPYECTVCKVRFTR [K20V]	2.3
YRHQRLHTGERPYECTVCKDRFTR [K20D]	1.89
YRHQRLHTGERPYECTVSKKRFTR [C18S]	3.38
YRHQRLHTGERPYECTVLKKRFTR [C18L]	2.6
YRHQRLHTGERPYECTVCKKRFRR [T23R]	2.85
YRHQRLHTGERPYECTVCKKRFVR [T23V]	2.36
YRWQRLHTGERPYECTVCKKRFTR [H3W]	1.65
YRAQRLHTGERPYECTVCKKRFTR [H3A]	1.89
YRHQRLHTGERPYECTVCKKRTTR [F22T]	2.41
YRHQRLHTGERPYECTVCKKRITR [F22I]	2.76
YRHQRLHTGIRPYECTVCKKRFTR [E10I]	2.32
YRHQRLHTGDRPYECTVCKKRFTR [E10D]	2.28
YRHQRLHTGERPYEDTVCKKRFTR [C15D]	3.51
YRHQRLHTGERPYECTVCLKRFTR [K19L]	2.2
YRHQRLHTPERPYECTVCKKRFTR [G9P]	2.04
YRHCRLHTGERPYECTVCKKRFTR [Q4C]	2.99
YRHNRLHTGERPYECTVCKKRFTR [Q4N]	2.24
YRHQRLHTGERPYECTFCKKRFTR [V17F]	2.37

Variants of: B2
Assay: as above
Conditions: c terminus: a fixed tail appended

Variant	protein stability index
IYLQLAICSSLQNLEKTIFCLQKL [L1I]	2.57
SYLQLAICSSLQNLEKTIFCLQKL [L1S]	3.44
PYLQLAICSSLQNLEKTIFCLQKL [L1P]	3.08
VYLQLAICSSLQNLEKTIFCLQKL [L1V]	2.57
EYLQLAICSSLQNLEKTIFCLQKL [L1E]	3.38
NYLQLAICSSLQNLEKTIFCLQKL [L1N]	3.07
DYLQLAICSSLQNLEKTIFCLQKL [L1D]	4.64
TYLQLAICSSLQNLEKTIFCLQKL [L1T]	2.99
LELQLAICSSLQNLEKTIFCLQKL [Y2E]	3.3
LSLQLAICSSLQNLEKTIFCLQKL [Y2S]	2.26
LILQLAICSSLQNLEKTIFCLQKL [Y2I]	3.14
LTLQLAICSSLQNLEKTIFCLQKL [Y2T]	2.08
LHLQLAICSSLQNLEKTIFCLQKL [Y2H]	3.59
LPLQLAICSSLQNLEKTIFCLQKL [Y2P]	1.62
LVLQLAICSSLQNLEKTIFCLQKL [Y2V]	3.11
LRLQLAICSSLQNLEKTIFCLQKL [Y2R]	4.79
LWLQLAICSSLQNLEKTIFCLQKL [Y2W]	3.02
LKLQLAICSSLQNLEKTIFCLQKL [Y2K]	2.42
LCLQLAICSSLQNLEKTIFCLQKL [Y2C]	1.42
LNLQLAICSSLQNLEKTIFCLQKL [Y2N]	2.69
LFLQLAICSSLQNLEKTIFCLQKL [Y2F]	2.5
LDLQLAICSSLQNLEKTIFCLQKL [Y2D]	1.07
LYLQLAIPSSLQNLEKTIFCLQKL [C8P]	2.57
LYLQLAIESSLQNLEKTIFCLQKL [C8E]	3.54

Variant	protein stability index
LYLQLAIISSLQNLEKTIFCLQKL [C8I]	1.69
LYLQLAIMSSLQNLEKTIFCLQKL [C8M]	4.39
LYLQLAIRSSLQNLEKTIFCLQKL [C8R]	3.1
LYLQLAIYSSLQNLEKTIFCLQKL [C8Y]	2.62
LYLQLAILSSLQNLEKTIFCLQKL [C8L]	2.92
LYLQLAIVSSLQNLEKTIFCLQKL [C8V]	3.6
LYLQLAISSSLQNLEKTIFCLQKL [C8S]	3.03
LYLQLAITSSLQNLEKTIFCLQKL [C8T]	2.71
LYLQLAIGSSLQNLEKTIFCLQKL [C8G]	3.48
LYLQLAIFSSLQNLEKTIFCLQKL [C8F]	1.94
LYLQLAIHSSLQNLEKTIFCLQKL [C8H]	2.52
LYLQLAINSSLQNLEKTIFCLQKL [C8N]	3.14
LYLQLAIWSSLQNLEKTIFCLQKL [C8W]	2.12
LYLQLAICSSLQNLDKTIFCLQKL [E15D]	1.75
LYLQLAICSSLQNLLKTIFCLQKL [E15L]	4.03
LYLQLAICSSLQNLPKTIFCLQKL [E15P]	3.75
LYLQLAICSSLQNLGKTIFCLQKL [E15G]	1.69
LYLQLAICSSLQNLCKTIFCLQKL [E15C]	2.82
LYLQLAICSSLQNLIKTIFCLQKL [E15I]	2.49
LYLQLAICSSLQNLMKTIFCLQKL [E15M]	3.11
LYLQLAICSSLQNLFKTIFCLQKL [E15F]	4.35
LYLQLAICVSLQNLEKTIFCLQKL [S9V]	3.45
LYLQLAICDSLQNLEKTIFCLQKL [S9D]	2.72
LYLQLAICISLQNLEKTIFCLQKL [S9I]	2.34

Variant	protein stability index
LYLQLAICLSLQNLEKTIFCLQKL [S9L]	2.28
LYLQLAICNSLQNLEKTIFCLQKL [S9N]	4.23
LYLQLAICWSLQNLEKTIFCLQKL [S9W]	1.02
LYLQLAICASLQNLEKTIFCLQKL [S9A]	3.6
LYLQLAICGSLQNLEKTIFCLQKL [S9G]	3.03
LYLQLAICMSLQNLEKTIFCLQKL [S9M]	4.15
LYLQLAICKSLQNLEKTIFCLQKL [S9K]	1.75
LYLWLAICSSLQNLEKTIFCLQKL [Q4W]	1.41
LYLALAICSSLQNLEKTIFCLQKL [Q4A]	1.92
LYLELAICSSLQNLEKTIFCLQKL [Q4E]	1.65
LYLTLAICSSLQNLEKTIFCLQKL [Q4T]	2.97
LYLCLAICSSLQNLEKTIFCLQKL [Q4C]	5.01
LYLMLAICSSLQNLEKTIFCLQKL [Q4M]	3.43
LYLFLAICSSLQNLEKTIFCLQKL [Q4F]	2.22
LYLILAICSSLQNLEKTIFCLQKL [Q4I]	2.44
LYLSLAICSSLQNLEKTIFCLQKL [Q4S]	4.32
LYLVLAICSSLQNLEKTIFCLQKL [Q4V]	3.48
LYLKLAICSSLQNLEKTIFCLQKL [Q4K]	2.11
LYLRLAICSSLQNLEKTIFCLQKL [Q4R]	4.03
LYLDLAICSSLQNLEKTIFCLQKL [Q4D]	2.74
LYAQLAICSSLQNLEKTIFCLQKL [L3A]	3.31
LYSQLAICSSLQNLEKTIFCLQKL [L3S]	3.2
LYEQLAICSSLQNLEKTIFCLQKL [L3E]	2.56
LYCQLAICSSLQNLEKTIFCLQKL [L3C]	4.32

Variant	protein stability index
LYPQLAICSSLQNLEKTIFCLQKL [L3P]	1.81
LYNQLAICSSLQNLEKTIFCLQKL [L3N]	1.34
LYRQLAICSSLQNLEKTIFCLQKL [L3R]	4.15
LYDQLAICSSLQNLEKTIFCLQKL [L3D]	2.73
LYTQLAICSSLQNLEKTIFCLQKL [L3T]	4.08
LYVQLAICSSLQNLEKTIFCLQKL [L3V]	3.09
LYLQLAICSSEQNLEKTIFCLQKL [L11E]	4.55
LYLQLAICSSMQNLEKTIFCLQKL [L11M]	3.61
LYLQLAICSSCQNLEKTIFCLQKL [L11C]	1.8
LYLQLAICSSFQNLEKTIFCLQKL [L11F]	1.39
LYLQLAICSSKQNLEKTIFCLQKL [L11K]	3.11
LYLQLAICSSPQNLEKTIFCLQKL [L11P]	5.02
LYLQLAICSSTQNLEKTIFCLQKL [L11T]	1.82
LYLQLAICSSDQNLEKTIFCLQKL [L11D]	2.17
LYLQLAICSSIQNLEKTIFCLQKL [L11I]	2.28
LYLQLAICSSQQNLEKTIFCLQKL [L11Q]	2.35
LYLQLAICSSWQNLEKTIFCLQKL [L11W]	1.77
LYLQLAICSSLQYLEKTIFCLQKL [N13Y]	2.21
LYLQLAICSSLQALEKTIFCLQKL [N13A]	2.98
LYLQLAICSSLQCLEKTIFCLQKL [N13C]	2.25
LYLQLAICSSLQFLEKTIFCLQKL [N13F]	2.51
LYLQLAICSSLQSLEKTIFCLQKL [N13S]	3.71
LYLQLAICSSLQDLEKTIFCLQKL [N13D]	3.49
LYLQLAICSSLQILEKTIFCLQKL [N13I]	1.93

Variant	protein stability index
LYLQLAICSSLQMLEKTIFCLQKL [N13M]	3.43
LYLQLAICSSLQRLEKTIFCLQKL [N13R]	3.01
LYLQLAICSSLQPLEKTIFCLQKL [N13P]	3.23
LYLQNAICSSLQNLEKTIFCLQKL [L5N]	3.62
LYLQVAICSSLQNLEKTIFCLQKL [L5V]	2.05
LYLQFAICSSLQNLEKTIFCLQKL [L5F]	3.72
LYLQYAICSSLQNLEKTIFCLQKL [L5Y]	2.57
LYLQGAICSSLQNLEKTIFCLQKL [L5G]	3.09
LYLQEAICSSLQNLEKTIFCLQKL [L5E]	1.79
LYLQTAICSSLQNLEKTIFCLQKL [L5T]	2.24
LYLQRAICSSLQNLEKTIFCLQKL [L5R]	1.92
LYLQAAICSSLQNLEKTIFCLQKL [L5A]	1.65
LYLQKAICSSLQNLEKTIFCLQKL [L5K]	1.36
LYLQHAICSSLQNLEKTIFCLQKL [L5H]	1.67
LYLQWAICSSLQNLEKTIFCLQKL [L5W]	2.82
LYLQCAICSSLQNLEKTIFCLQKL [L5C]	1.79
LYLQPAICSSLQNLEKTIFCLQKL [L5P]	2.23
LYLQLAICSSLQNKEKTIFCLQKL [L14K]	2.9
LYLQLAICSSLQNAEKTIFCLQKL [L14A]	2.33
LYLQLAICSSLQNDEKTIFCLQKL [L14D]	3.85
LYLQLAICSSLQNMEKTIFCLQKL [L14M]	2.22
LYLQLAICSSLQNPEKTIFCLQKL [L14P]	2.32
LYLQLAICSSLQNTEKTIFCLQKL [L14T]	1.65
LYLQLAICSSLQNNEKTIFCLQKL [L14N]	2.84

Variant	protein stability index
LYLQLAICSSLQNIEKTIFCLQKL [L14I]	2.96
LYLQLAICSSLQNHEKTIFCLQKL [L14H]	2.93
LYLQLAICSSLQNEEKTIFCLQKL [L14E]	1.9
LYLQLAICSSLQNGEKTIFCLQKL [L14G]	2.24
LYLQLYICSSLQNLEKTIFCLQKL [A6Y]	2.03
LYLQLQICSSLQNLEKTIFCLQKL [A6Q]	2.63
LYLQLTICSSLQNLEKTIFCLQKL [A6T]	3.04
LYLQLLICSSLQNLEKTIFCLQKL [A6L]	2.52
LYLQLRICSSLQNLEKTIFCLQKL [A6R]	3.17
LYLQLWICSSLQNLEKTIFCLQKL [A6W]	1.73
LYLQLCICSSLQNLEKTIFCLQKL [A6C]	2.72
LYLQLPICSSLQNLEKTIFCLQKL [A6P]	2.9
LYLQLMICSSLQNLEKTIFCLQKL [A6M]	3.66
LYLQLHICSSLQNLEKTIFCLQKL [A6H]	4.38
LYLQLNICSSLQNLEKTIFCLQKL [A6N]	2.71
LYLQLIICSSLQNLEKTIFCLQKL [A6I]	2.16
LYLQLGICSSLQNLEKTIFCLQKL [A6G]	1.73
LYLQLVICSSLQNLEKTIFCLQKL [A6V]	1.62
LYLQLAICSPLQNLEKTIFCLQKL [S10P]	2.52
LYLQLAICSHLQNLEKTIFCLQKL [S10H]	3.71
LYLQLAICSKLQNLEKTIFCLQKL [S10K]	2.11
LYLQLAICSTLQNLEKTIFCLQKL [S10T]	2.38
LYLQLAICSVLQNLEKTIFCLQKL [S10V]	3.44
LYLQLAICSNLQNLEKTIFCLQKL [S10N]	3.36

Variant	protein stability index
LYLQLAICSLLQNLEKTIFCLQKL [S10L]	2.99
LYLQLAICSALQNLEKTIFCLQKL [S10A]	2.36
LYLQLAICSFLQNLEKTIFCLQKL [S10F]	4.67
LYLQLAICSSLNNLEKTIFCLQKL [Q12N]	2.07
LYLQLAICSSLWNLEKTIFCLQKL [Q12W]	3.78
LYLQLAICSSLKNLEKTIFCLQKL [Q12K]	3.08
LYLQLAICSSLHNLEKTIFCLQKL [Q12H]	3.42
LYLQLAICSSLPNLEKTIFCLQKL [Q12P]	2.52
LYLQLAICSSLANLEKTIFCLQKL [Q12A]	2.38
LYLQLAICSSLENLEKTIFCLQKL [Q12E]	2.29
LYLQLAICSSLMNLEKTIFCLQKL [Q12M]	3.9
LYLQLAICSSLTNLEKTIFCLQKL [Q12T]	4.52
LYLQLAICSSLVNLEKTIFCLQKL [Q12V]	2.3
LYLQLAICSSLFNLEKTIFCLQKL [Q12F]	2.75
LYLQLAICSSLGNLEKTIFCLQKL [Q12G]	2.58
LYLQLAGCSSLQNLEKTIFCLQKL [I7G]	3.86
LYLQLATCSSLQNLEKTIFCLQKL [I7T]	2.36
LYLQLAHCSSLQNLEKTIFCLQKL [I7H]	2.71
LYLQLANCSSLQNLEKTIFCLQKL [I7N]	2.23
LYLQLAMCSSLQNLEKTIFCLQKL [I7M]	2.24
LYLQLAYCSSLQNLEKTIFCLQKL [I7Y]	3.21
LYLQLASCSSLQNLEKTIFCLQKL [I7S]	1.26
